The results in this text go back to patent publication US20030186281A1, “Modified tetracycline repressor protein compositions and methods of use” (priority 2001, published 2003).

This data set relates to tet operator sequence. Kind of data set: β-galactosidase activity of a tetracycline-regulated promoter in transformed E. coli with revTetR, in the presence and absence of anhydrotetracycline (atc). The following applies: for β-Galactosidase Activity, Cultured Without ATC: RevTetR isolate cultured in the absence of anhydrotetracycline (ATC); for β-Galactosidase Activity, Cultured With ATC: RevTetR isolate cultured in the presence of anhydrotetracycline (ATC). Type of data set: cell-based, Escherichia coli. A digest of the protocol: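 TetR(BD) chimera mutants (TetR(B) residues 1–50, TetR(D) 51–208) expressed in E. coli regulating a tet operator-controlled lacZ. β-Galactosidase measured in Miller units at 28 °C and 37 °C with and without anhydrotetracycline; reported as percent of maximal expression without Tet repressor.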

B1: TetRrev29/27: revTetR(BD) L14E V20G (protein)
chain: MSRLDKSKVINSAEELLNEGGIEGLTTRKLAQKLGVEQPTLYWHVKNKRALLDALAVEILARHHDYSLPAAGESWQSFLRNNAMSFRRALLRYRDGAKVHLGTRPDEKQYDTVETQLRFMTENGFSLRDGLYAISAVSHFTLGAVLEQQEHTAALTDRPAAPDENLPPLLREALQIMDSDDGEQAFLHGLESLIRGFEVQLTALLQIV
modifications: Modified tetracycline repressor
notes: revTetR(BD) L14E V20G
Regarding B1, the “β-Galactosidase Activity, Cultured Without ATC” value is recorded as 82.7579 and the “β-Galactosidase Activity, Cultured With ATC” value turned out to be 9.453.

B2: TetRrevAtc4-1: revTetR(BD) A50S D53F A56G V57I H63Q (protein)
chain: MSRLDKSKVINSALELLNEVGIEGLTTRKLAQKLGVEQPTLYWHVKNKRSLLFALGIEILARQHDYSLPAAGESWQSFLRNNAMSFRRALLRYRDGAKVHLGTRPDEKQYDTVETQLRFMTENGFSLRDGLYAISAVSHFTLGAVLEQQEHTAALTDRPAAPDENLPPLLREALQIMDSDDGEQAFLHGLESLIRGFEVQLTALLQIV
modifications: Modified tetracycline repressor
notes: revTetR(BD) A50S D53F A56G V57I H63Q
For the molecule B2, the “β-Galactosidase Activity, Cultured Without ATC” value was determined as 100.076 and the “β-Galactosidase Activity, Cultured With ATC” value came out at 6.9011.

B3: TetRrev29/35: revTetR(BD) L17S E23D (protein)
chain: MSRLDKSKVINSAEELSNEGGIDGLTTRKLAQKLGVEQPTLYWHVKNKRALLDALAVEILARHHDYSLPAAGESWQSFLRNNAMSFRRALLRYRDGAKVHLGTRPDEKQYDTVETQLRFMTENGFSLRDGLYAISAVSHFTLGAVLEQQEHTAALTDRPAAPDENLPPLLREALQIMDSDDGEQAFLHGLESLIRGFEVQLTALLQIV
modifications: Modified tetracycline repressor
notes: revTetR(BD) L17S E23D
With B3, the “β-Galactosidase Activity, Cultured Without ATC” value was determined as 58.0891 and the “β-Galactosidase Activity, Cultured With ATC” value came out at 2.1051.

B4: TetRrev29/42: revTetR(BD) E19D G96R (protein)
chain: MSRLDKSKVINSALDLLNEVGIEGLTTRKLAQKLGVEQPTLYWHVKNKRALLDALAVEILARHHDYSLPAAGESWQSFLRNNAMSFRRALLRYRDRAKVHLGTRPDEKQYDTVETQLRFMTENGFSLRDGLYAISAVSHFTLGAVLEQQEHTAALTDRPAAPDENLPPLLREALQIMDSDDGEQAFLHGLESLIRGFEVQLTALLQIV
modifications: Modified tetracycline repressor
notes: revTetR(BD) E19D G96R
As to B4, the “β-Galactosidase Activity, Cultured Without ATC” value was 96.187 and the “β-Galactosidase Activity, Cultured With ATC” value was determined as 11.861.

B5: TetRrev29/52: revTetR(BD) L14V L17V N18K V20V G24G (protein)
chain: MSRLDKSKVINSAVELVKEVGIEGLTTRKLAQKLGVEQPTLYWHVKNKRALLDALAVEILARHHDYSLPAAGESWQSFLRNNAMSFRRALLRYRDGAKVHLGTRPDEKQYDTVETQLRFMTENGFSLRDGLYAISAVSHFTLGAVLEQQEHTAALTDRPAAPDENLPPLLREALQIMDSDDGEQAFLHGLESLIRGFEVQLTALLQIV
modifications: Modified tetracycline repressor
notes: revTetR(BD) L14V L17V N18K V20V G24G
B5: the “β-Galactosidase Activity, Cultured Without ATC” value stood at 48.4964 and the “β-Galactosidase Activity, Cultured With ATC” value turned out to be 3.3035.
